Measurements as given in the supplement of paper PMC9876800.

Test system: peptide library, one residue held at a place counted from the S/T acceptor
Test: relative phosphorylation of the sub-library (ratio to the mean residue at this position); higher = residue favoured
Conditions: human
Method in brief: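 In 384-well plates, purified recombinant kinases (human or orthologue constructs) were incubated for 90 min under kinase-specific conditions with 50 μM biotinylated degenerate peptide sub-libraries and 50 μM ATP spiked with γ-32P-ATP. Each sub-library fixed a single residue at one position around a central Ser/Thr. Relative sub-library phosphorylation, measured by phosphorimaging and densitometry of streptavidin membrane spots, is given as a ratio to the mean residue at that position.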

Sequence of PRKAA1, construct: Full length (Q13131 whole entry, looked up): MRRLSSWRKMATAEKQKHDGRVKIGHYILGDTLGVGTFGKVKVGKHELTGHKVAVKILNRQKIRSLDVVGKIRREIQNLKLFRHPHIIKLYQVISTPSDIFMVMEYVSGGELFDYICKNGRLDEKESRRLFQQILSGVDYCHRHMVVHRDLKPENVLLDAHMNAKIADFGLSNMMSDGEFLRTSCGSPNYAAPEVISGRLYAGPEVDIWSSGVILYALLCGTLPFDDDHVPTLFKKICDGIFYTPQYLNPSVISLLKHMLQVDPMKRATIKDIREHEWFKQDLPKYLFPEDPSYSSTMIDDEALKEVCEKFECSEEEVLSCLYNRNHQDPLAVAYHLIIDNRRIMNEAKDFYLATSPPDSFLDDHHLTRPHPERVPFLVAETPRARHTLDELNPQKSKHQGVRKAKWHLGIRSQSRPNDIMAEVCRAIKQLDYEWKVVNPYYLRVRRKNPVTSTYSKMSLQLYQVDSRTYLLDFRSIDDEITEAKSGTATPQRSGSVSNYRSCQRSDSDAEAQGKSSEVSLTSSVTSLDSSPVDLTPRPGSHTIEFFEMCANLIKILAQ
Sequence of HIPK1, construct: aa158-555 (Q86Z02 158-555, looked up): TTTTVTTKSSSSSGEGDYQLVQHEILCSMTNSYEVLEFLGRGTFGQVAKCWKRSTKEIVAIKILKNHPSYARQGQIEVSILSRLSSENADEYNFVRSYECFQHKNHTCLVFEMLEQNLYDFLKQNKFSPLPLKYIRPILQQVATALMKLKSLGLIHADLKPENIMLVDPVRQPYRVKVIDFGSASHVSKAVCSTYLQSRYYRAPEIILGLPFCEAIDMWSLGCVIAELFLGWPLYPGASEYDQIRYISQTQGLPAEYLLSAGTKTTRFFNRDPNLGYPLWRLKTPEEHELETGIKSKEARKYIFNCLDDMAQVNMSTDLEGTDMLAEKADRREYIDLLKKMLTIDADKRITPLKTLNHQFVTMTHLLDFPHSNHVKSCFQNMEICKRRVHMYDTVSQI

MTOR, construct: aa1362-end (from UniProt P42345)
relative phosphorylation
Conditions	at +1	at +2	at +3	at +4	at -1	at -2	at -3	at -4	at -5
A fixed	0.644	0.815	1.08	0.948	0.839	1.52	0.751	0.924	0.888
D fixed	0.338	1.2	1.11	0.821	0.489	0.686	0.747	1.1	1.21
E fixed	0.342	0.889	1.07	0.829	0.709	0.643	0.983	1.09	1.04
F fixed	1.72	0.686	0.647	1.01	1.01	1.09	1.09	1.08	1
G fixed	0.613	0.903	1.43	1.21	2.83	1.58	1.01	0.942	1.07
H fixed	0.556	1.24	1.17	1.28	1.18	1.05	1.14	1.21	1.15
I fixed	0.707	0.686	0.601	0.706	0.433	0.88	0.778	0.747	0.593
K fixed	0.487	1.58	1.35	1.36	0.986	0.854	0.924	0.879	1.1
L fixed	1.43	1.16	0.756	0.695	0.698	0.682	0.938	0.956	0.724
M fixed	1.02	0.673	0.694	0.868	1.13	0.705	1.05	1.07	0.807
N fixed	0.452	1.12	1.33	0.968	1.36	0.954	0.986	0.939	0.923
P fixed	2.13	1.31	0.993	0.872	0.786	1.56	1.09	0.955	1.47
Q fixed	0.561	0.83	0.942	0.92	1.15	0.838	0.949	0.953	0.862
R fixed	0.506	1.7	1.2	1.2	1.15	0.973	1.1	1.02	1.04
V fixed	0.816	0.728	0.675	0.7	0.482	0.985	0.795	0.708	0.745
W fixed	1.99	0.643	0.99	1.41	0.721	1.05	1.2	1.3	1.36
Y fixed	2.68	0.836	0.972	1.2	1.05	0.956	1.47	1.13	1.01
pThr fixed	0.637	1.71	1.67	1.27	0.546	1.01	1.15	1.34	1.16
pTyr fixed	1.06	0.721	1	0.941	0.841	1.27	1.66	1.37	1.21

PRKAA1, construct: Full length (from UniProt Q13131)
relative phosphorylation
Conditions	at +1	at +2	at +3	at +4	at -1	at -2	at -3	at -4	at -5
A fixed	0.927	1.41	0.812	0.574	1.05	1.27	0.845	1.21	0.908
D fixed	0.609	0.529	1.53	0.606	0.666	0.413	0.32	0.497	0.381
E fixed	0.781	0.496	0.935	0.516	0.578	0.475	0.453	0.63	0.374
F fixed	1.63	0.899	1.1	1.25	0.643	0.718	0.516	0.682	1.2
G fixed	0.773	0.759	0.902	0.659	1.4	1.05	0.889	1.2	0.857
H fixed	1.18	1.48	1.5	0.757	1.11	1.28	1.28	1.19	0.816
I fixed	0.75	1.38	0.705	2.17	0.379	0.944	0.402	0.659	1.41
K fixed	1	0.723	1.15	0.753	1.93	1.73	2.54	2.1	1.35
L fixed	0.813	1.23	0.803	2.67	0.63	0.541	0.45	0.643	1.63
M fixed	1.49	0.855	0.833	1.89	0.972	0.638	0.609	0.895	1.5
N fixed	0.86	1.08	1.55	0.775	1.12	1.7	0.869	0.947	0.724
P fixed	0.231	1.31	0.39	0.767	1.32	0.783	1.04	1.19	0.944
Q fixed	1.23	0.893	0.996	0.704	1.31	0.92	0.879	0.888	0.847
R fixed	1.24	0.649	1.09	0.691	1.66	1.81	4.12	2.17	1.71
V fixed	0.893	1.48	0.65	0.969	0.589	1.3	0.477	0.728	0.784
W fixed	1.35	0.922	1.19	0.693	0.782	0.705	0.633	0.681	0.731
Y fixed	1.23	0.897	0.866	0.556	0.87	0.716	0.677	0.705	0.836
pThr fixed	0.737	0.513	0.427	0.606	0.418	0.679	0.632	0.724	0.726
pTyr fixed	0.604	0.5	0.601	0.485	0.685	0.568	0.51	0.492	0.778

HIPK1, construct: aa158-555 (from UniProt Q86Z02)
relative phosphorylation
Conditions	at +1	at +2	at +3	at +4	at -1	at -2	at -3	at -4	at -5
A fixed	0.711	1.04	0.979	0.83	1.21	2.16	0.93	1	0.905
D fixed	0.165	0.679	0.59	0.795	0.471	0.278	0.49	0.719	0.716
E fixed	0.193	0.512	0.51	0.687	0.485	0.283	0.464	0.762	0.634
F fixed	0.264	1.15	0.885	1.04	0.567	0.398	0.342	0.668	0.793
G fixed	0.896	1.37	1.19	1.14	1.26	0.872	1.27	1.13	0.991
H fixed	0.354	1.23	1.17	1.07	0.881	0.454	0.698	0.884	1.06
I fixed	0.421	0.708	0.92	0.978	0.536	0.999	0.42	0.781	0.883
K fixed	0.503	1.42	0.886	1.12	1.75	0.898	1.13	1.3	1.26
L fixed	0.329	0.928	1.2	1	0.682	0.862	0.525	0.876	0.84
M fixed	0.272	0.815	0.972	1.04	0.916	0.607	0.484	0.793	0.742
N fixed	0.318	1.04	0.826	1.01	0.761	0.735	0.677	0.704	0.928
P fixed	8.97	1.1	2.4	1.14	1.91	2.58	1.07	1.22	1.21
Q fixed	0.399	0.888	0.885	0.981	0.967	0.605	0.71	0.856	0.89
R fixed	1.85	1.55	1.06	1.13	2.49	3.33	6.49	3.08	2.25
V fixed	0.793	0.755	0.863	0.954	0.645	1.17	0.47	0.706	0.794
W fixed	0.284	0.966	0.886	1.16	0.673	0.389	0.426	0.784	0.825
Y fixed	0.276	0.848	0.772	0.917	0.801	0.381	0.397	0.723	1.27
pThr fixed	0.387	0.46	0.541	0.711	0.485	1.05	0.712	0.94	1.05
pTyr fixed	0.453	0.444	0.772	0.757	0.599	0.431	0.644	0.648	1.04

MAP2K2, construct: aa306-end (from UniProt P36507)
relative phosphorylation
Conditions	at +1	at +2	at +3	at +4	at -1	at -2	at -3	at -4	at -5
A fixed	0.617	1.06	0.962	0.933	0.978	0.833	1.06	0.961	1.08
D fixed	1.32	0.532	0.643	0.706	0.63	0.982	0.744	1.13	1.01
E fixed	0.689	0.364	0.589	0.62	0.606	0.819	0.803	1.01	0.781
F fixed	1.49	0.907	1.05	0.995	1.19	2.06	1.51	1.05	0.965
G fixed	0.624	0.787	1.22	1.08	1.35	0.713	0.737	1.14	1.07
H fixed	0.836	3.02	1.3	1.08	1.01	2.51	0.945	1.04	0.996
I fixed	1.55	0.963	1.02	0.968	0.735	0.626	1.18	0.808	0.73
K fixed	0.453	0.771	0.833	0.882	1.03	0.674	0.649	0.799	1.01
L fixed	1.46	0.795	0.981	0.927	1.49	0.763	1.4	0.984	0.789
M fixed	1.89	1.13	0.865	0.862	1.32	1.09	1.58	1.05	0.943
N fixed	0.537	0.756	0.744	0.755	0.696	0.768	0.63	0.921	0.962
P fixed	0.347	0.681	0.947	1.02	0.494	0.46	0.691	0.857	1.11
Q fixed	0.625	0.8	0.742	0.79	0.842	0.705	0.585	0.835	0.819
R fixed	0.474	0.847	0.926	0.985	1.34	0.966	0.787	0.929	1.1
V fixed	1.03	0.875	0.933	0.74	0.874	0.562	0.885	0.789	1.14
W fixed	1.36	1.18	1.51	1.96	1.08	1.29	1.38	1.38	1.25
Y fixed	1.7	1.54	1.73	1.69	1.34	1.18	1.44	1.31	1.25
pThr fixed	0.823	0.505	0.611	0.607	0.404	0.431	0.575	0.741	0.914
pTyr fixed	0.886	0.37	0.827	0.673	0.592	0.431	0.675	0.795	0.953
